Results as given in US12187807B2, “Antibody molecules to C5AR1 and uses thereof” (Visterra, Inc., priority 2020, dated 2025).

T1: C5aR1 (human neutrophils) (Homo sapiens, UniProt P21730)
T1 construct: neutrophils isolated from whole blood; host or cells: human neutrophils (cryopreserved, or isolated from whole blood)
T1 sequence (P21730 1-350): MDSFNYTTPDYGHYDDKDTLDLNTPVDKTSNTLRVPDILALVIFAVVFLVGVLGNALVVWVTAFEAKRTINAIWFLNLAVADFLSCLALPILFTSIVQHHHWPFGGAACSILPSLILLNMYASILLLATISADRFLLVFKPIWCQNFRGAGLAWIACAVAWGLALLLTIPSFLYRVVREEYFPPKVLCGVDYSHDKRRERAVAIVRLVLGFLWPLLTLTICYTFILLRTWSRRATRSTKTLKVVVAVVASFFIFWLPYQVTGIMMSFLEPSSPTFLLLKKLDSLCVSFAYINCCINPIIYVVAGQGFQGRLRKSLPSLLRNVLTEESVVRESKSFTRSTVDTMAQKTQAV

T2: C5aR1 (C5aR1-U937 cells) (Homo sapiens, UniProt P21730, K279N)
T2 construct: expressed in transfected cells
T2 sequence (P21730 with tags, fused parts or gaps K279N limits assumed): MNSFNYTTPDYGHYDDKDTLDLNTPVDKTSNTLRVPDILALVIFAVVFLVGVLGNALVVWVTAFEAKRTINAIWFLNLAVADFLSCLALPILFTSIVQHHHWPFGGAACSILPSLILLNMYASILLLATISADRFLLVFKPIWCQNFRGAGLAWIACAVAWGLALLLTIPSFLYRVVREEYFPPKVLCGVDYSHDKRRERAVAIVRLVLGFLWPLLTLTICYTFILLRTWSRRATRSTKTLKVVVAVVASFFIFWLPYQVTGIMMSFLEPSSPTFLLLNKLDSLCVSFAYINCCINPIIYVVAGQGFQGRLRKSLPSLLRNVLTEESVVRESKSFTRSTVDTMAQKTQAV


Assays:
Type in all cases: cell-based
[1] = biological target: T1, C5aR1 (human neutrophils); assay: C5a induced calcium flux (Fluo-4), human neutrophils
Text: Intracellular calcium is released into the cytoplasm by stimulation of GPCRs and acts as a second messenger of GPCR signaling, commonly used to quantify GPCR agonism and antagonism. As such, calcium flux assays using calcium sensitive dye were utilized to detect cytosolic changes in calcium concentration. […] The dye penetrated the cell membrane and became active once inside the cell. The active form of the dye became fluorescent after binding to intracellular calcium and the fluorescence was used to determine C5aR1 signaling in response to C5a addition. Specifically, stable C5aR1-U937 cells or neutrophils isolated from whole blood were stained with Fluo-4 Direct Calcium Assay kit from Thermo Fisher for 1 hour at 37° C. Next, antibody or antagonist was incubated with the cells for 30 minutes. The basal fluorescence with an excitation at 494 nm and emission at 516 nm was measured for 15 seconds. C5a was added to the cells and the fluorescence was measured over a span of four minutes. The basal read from before C5a stimulation and the max signal after C5a stimulation were used to calculate the response ratio. The potency of the antibodies was assessed for their ability to inhibit intracellular calcium release in C5aR1 expressing cells in the presence of C5a. Similar to the chemotaxis assay, the calcium flux assays were performed using engineered cells stably expressing C5aR1 as well as using human neutrophils.

[2] = biological target: T1, C5aR1 (human neutrophils); assay: C5a induced chemotaxis (transwell), human neutrophils; details: 1, 10, or 100 nM antagonist, C5a 10^−6 to 10^−9.5 M
Text: One of the primary mechanisms by which neutrophils migrate to the site of inflammation is by chemotaxis induced by a C5a/C5adesArg gradient is detected by C5aR1 signaling. Anti-C5aR1 antibodies were thus assessed in a chemotaxis assay for their ability to block C5a induced migration of neutrophils. The assay involved cell migration in a double chamber well separated by filters. The cells and inhibitors were applied into the upper chamber and the lower chamber was filled with the chemoattractant, causing the cells to migrate to the lower chamber. The inhibition activity was evaluated by counting the migrated cell numbers. Specifically, a titration of C5a was added to the bottom chamber a 96 transwell plate. Cells expressing human C5aR1 (C5aR1-U937 cells or human neutrophils) were incubated with or without antagonist and then seeded into the top chamber of the transwell plate. The cells were incubated for 2 hours. Cells that migrated to the bottom chamber were quantified using the CyQUANT cell proliferation kit following the manufacturer's protocol. […]
Anti-C5aR1 antibodies were assessed in a chemotaxis assay for their ability to block C5a induced migration of neutrophils. […] The inhibition activity was evaluated by counting the migrated cell numbers. […] Cells that migrated to the bottom chamber were quantified using the CyQUANT cell proliferation kit following the manufacturer's protocol. […]

C5aR1 (C5aR1-U937 cells) = biological target: T2, C5aR1 (C5aR1-U937 cells); assay: C5a induced chemotaxis (transwell), C5aR1-U937 cells; details: for inhibition of cell chemotaxis: C5aR1-U937 cells, 1, 10, or 100 nM antibody, C5a 10^−6 to 10^−9.5 M; for inhibition of chemotaxis as single agents: FIGS. 18A-18C, cells not given
Text: (§1) One of the primary mechanisms by which neutrophils migrate to the site of inflammation is by chemotaxis induced by a C5a/C5adesArg gradient is detected by C5aR1 signaling. Anti-C5aR1 antibodies were thus assessed in a chemotaxis assay for their ability to block C5a induced migration of neutrophils. The assay involved cell migration in a double chamber well separated by filters. The cells and inhibitors were applied into the upper chamber and the lower chamber was filled with the chemoattractant, causing the cells to migrate to the lower chamber. The inhibition activity was evaluated by counting the migrated cell numbers. Specifically, a titration of C5a was added to the bottom chamber a 96 transwell plate. Cells expressing human C5aR1 (C5aR1-U937 cells or human neutrophils) were incubated with or without antagonist and then seeded into the top chamber of the transwell plate. The cells were incubated for 2 hours. Cells that migrated to the bottom chamber were quantified using the CyQUANT cell proliferation kit following the manufacturer's protocol. The assay was performed using engineered cells stably expressing C5aR1 as well as using human neutrophils.
as §1, with “Anti-C5aR1” for “One of the primary mechanisms by which neutrophils migrate to the site of inflammation is by chemotaxis induced by a C5a/C5adesArg gradient is detected by C5aR1 signaling. Anti-C5aR1”, “were” for “were thus”
In a first experiment, C5aR1-U937 cells were seeded into the top chamber of a 96 Transwell plate in the presence of no antibody (antagonist), or of 1, 10, or 100 nM antibody (antagonist).

| inhibition of human neutrophil chemotaxis [2] | inhibition of cell chemotaxis (C5aR1 (C5aR1-U937 cells)) | Molecule | inhibition of C5a induced calcium efflux [1] | inhibition of chemotaxis as single agents (C5aR1 (C5aR1-U937 cells)) |
| --- | --- | --- | --- | --- |
| strongest effects | strongest effects | clone 329: anti-C5aR1 Site II antibody; VH SEQ ID NO: 492, VL SEQ ID NO: 552 (antibody, V domains shown) VH: QVQLQQSGAELTKPGASVKLSCKASGYTFTNYWMHWVKQRPGQGLEWIGYLNPSSGYTKYNQKFKDKATLTADKSSSTAYMQLNSLTYEDSAVYYCTRSGGDNYGNPYYFDRWGQGTTVTVSS VL: DVVMTQTPLSLTVSLGDQASISCRSSQSLVHSNGNTYLHWYLQKPGQSPKFLIYKVSNRFSGVPDRFSGSGSGTDFRLKISRVEAEDLGVYFCSQSTLVPLTFGAGTKLEIK | inhibition of the C5a induced calcium efflux | inhibited chemotaxis as single agents in a dose-dependent manner |
| – | strongest effects | clone 583: anti-C5aR1 Site I antibody; VH SEQ ID NO: 536, VL SEQ ID NO: 595 (antibody, V domains shown) VH: EVQLVESGGGLVKPGGSLKLSCAASGFTFNAYAMSWVRQTPEKRLEWVASISTGGNTYCPDSVKDRFTVSRDNVRNILYLQMSSLRSEDTAMYYCTRGYQRFSGFAYWGQGTLVTVS VL: DVVMTQTPLSPPVSLGYQASISCRSSQSLVHSNGNTYLNWYLQKPGQSPKLLIYKVSNRLSGVPDRFSGSGSGTDFTLKISRVETEDLGVYFCSQSTHVPYTFGGGTKLEIK | inhibition of the C5a induced calcium efflux | inhibited chemotaxis as single agents in a dose-dependent manner |
